How the values were obtained:
[1] = target: T1, recombinant protein of the human CD7 extracellular domain, CD7-His (human, UniProt P09564 26-180); test: indirect ELISA, plate coated with 1 µg/ml human CD7, anti-human IgG Fc-HRP
T1 construct: range 25-645; also called human CD7-His protein; recombinant human CD7; not shown: His protein tag
T1 sequence (looked up): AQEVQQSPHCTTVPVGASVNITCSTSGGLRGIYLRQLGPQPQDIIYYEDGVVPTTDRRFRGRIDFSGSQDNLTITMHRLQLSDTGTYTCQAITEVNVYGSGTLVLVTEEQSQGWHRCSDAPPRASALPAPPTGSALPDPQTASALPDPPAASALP

[2] = target: T2, mouse CD7 (ACROBiosystems, CD7-M52H3) (mouse, UniProt P50283 24-150); test: indirect ELISA, plate coated with 1 µg/ml mouse CD7
T2 construct: Bought recombinant protein; also called Mouse CD7 protein
T2 sequence (looked up): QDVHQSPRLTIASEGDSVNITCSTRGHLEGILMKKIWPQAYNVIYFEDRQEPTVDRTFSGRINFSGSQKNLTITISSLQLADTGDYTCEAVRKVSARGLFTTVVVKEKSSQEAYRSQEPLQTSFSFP

[3] = target: T3, human CD7 expressed on cells (human, UniProt P09564 26-240); test: cell-based or functional assay
T3 sequence (looked up): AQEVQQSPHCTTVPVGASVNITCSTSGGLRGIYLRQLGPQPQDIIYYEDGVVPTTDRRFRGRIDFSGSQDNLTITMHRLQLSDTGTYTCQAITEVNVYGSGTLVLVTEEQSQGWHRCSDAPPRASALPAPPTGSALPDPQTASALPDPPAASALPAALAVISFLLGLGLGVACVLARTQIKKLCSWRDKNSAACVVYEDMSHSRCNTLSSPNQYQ

[4] = target: T3, human CD7 expressed on cells; test: cell-based or functional assay; remark: listed apart in the source
[5] = target: T1, recombinant protein of the human CD7 …; test: SPR Biacore T200, antibody captured via Fc, human CD7 as analyte

B1: AHP19508 (Fc fusion)
chain: AVQLVDSGGGLVQPGGSLRLSCAASGDFARLYEMAWYRQTPGQQREVVAQITVGGSTKYADSVKGRFTISRDSAKNTVYLQMNSLRPEDTAVYYCHAWPALWGQGTQVTVSS
notes: Alpaca VHH expressed as fusion to human IgG1 Fc; not shown: human IgG1 Fc of expression vector pcDNA3.4-Fc (HuIgG1)
EC50 [1]: 0.2 nM | binding result [2]: no binding (tested: 8 µg/ml (about 100 nM))

B2: AHP19509-VHH1 CAR (other)
chain: EVQLVESGGGLVQPGGSLRLSCAASGGTFNRYTMGWFRQAPGKEREFVSAISWSGGSTDYADSVKGRFTISRDNSKNTLYLQMNSLRAEDTAVYYCDTDRMPYRPVAAGILSWEANWGQGTLVTVSSGGGSGGGSGGGSGGGSEVQLVESGGGLVQPGGSLRLSCAASGGTFNRYTMGWFRQAPGKEREFVSAISWSGGSTDYADSVKGRFTISRDNSKNTLYLQMNSLRAEDTAVYYCDTDRMPYRPVAAGILSWEANWGQGTLVTVSSAAADYKDDDDKIEVMYPPPYLDNEKSNGTIIHVKGKHLCPSPLFPGPSKPFWVLVVVGGVLACYSLLVTVAFIIFWVRSKRSRLLHSDYMNMTPRRPGPTRKHYQPYAPPRDFAAYRSRVKFSRSADAPAYQQGQNQLYNELNLGRREEYDVLDKRRGRDPEMGGKPRRKNPQEGLYNELQKDKMAEAYSEIGMKGERRRGKGHDGLYQGLSTATKDTYDALHMQALPPR
% Cytotoxicity of CAR-T cells against Jurkat/Luc, E/T = 1 : 1 [3]: 62.4% | % Cytotoxicity of CAR-T cells against Jurkat/Luc, E/T = 5 : 1 [3]: 93% | % Cytotoxicity of CAR-T cells against Jurkat/Luc, E/T = 20 : 1 [3]: 99.6% | % Cytotoxicity of CAR-T cells against CCRF-CEM/Luc, E/T = 1 : 1 [4]: 74.8% | % Cytotoxicity of CAR-T cells against CCRF-CEM/Luc, E/T = 5 : 1 [4]: 60.2% | % Cytotoxicity of CAR-T cells against CCRF-CEM/Luc, E/T = 20 : 1 [4]: 84.6%

B3: AHP19495 (Fc fusion)
chain: AVQLVESGGGLVQPGGSLRLSCAASGFTASRDVMSWYRQPPGKERELVASIFSAGSKETYAESVKGRFTISIDNVKNTVNLQMDNLKPEDTAVYYCHRWPGYWGQGTQVTVSS
notes: as for B1
EC50 [1]: 0.158 nM | binding result [2]: no binding (tested: 8 µg/ml (about 100 nM))

B4: AHP19484-VHH3 (Fc fusion)
chain: QVQLVESGGGLVKPGGSLRLSCAASGSSFHFAFMGWYRQAPGKQRELVADISPGNSTNYADPVKGRFTISRDNAKNSLYLQMNSLRAEDTAVYFCRDLRSWGAWGQGTLVTVSS
notes: Humanized VHH of AHP19484 expressed as fusion to human IgG1 Fc; not shown: human IgG1 Fc of expression vector pcDNA3.4-Fc (Human IgG1)
Kd [5]: 0.118 nM | koff [5]: 5.19e-05 s⁻¹ | kon [5]: 440000 M⁻¹ s⁻¹

B5: AHP19511 (Fc fusion)
chain: AVQLVESGGGLVQPGGSLRLSCAASGFTFSNAVIGWYRQAPGKQRELVASITPGGRTTYPDSVKGRFIISRDNAKNTVYLEMNSLKLEDTAVYYCNDFRGLGGYWGQGTQVTVSS
notes: as for B1
EC50 [1]: 0.166 nM | binding result [2]: no binding (tested: 8 µg/ml (about 100 nM))

B6: AHP19484-VHH3 CAR (other)
chain: QVQLVESGGGLVKPGGSLRLSCAASGSSFHFAFMGWYRQAPGKQRELVADISPGNSTNYADPVKGRFTISRDNAKNSLYLQMNSLRAEDTAVYFCRDLRSWGAWGQGTLVTVSSGGGSGGGSGGGSGGGSQVQLVESGGGLVKPGGSLRLSCAASGSSFHFAFMGWYRQAPGKQRELVADISPGNSTNYADPVKGRFTISRDNAKNSLYLQMNSLRAEDTAVYFCRDLRSWGAWGQGTLVTVSSAAADYKDDDDKIEVMYPPPYLDNEKSNGTIIHVKGKHLCPSPLFPGPSKPFWVLVVVGGVLACYSLLVTVAFIIFWVRSKRSRLLHSDYMNMTPRRPGPTRKHYQPYAPPRDFAAYRSRVKFSRSADAPAYQQGQNQLYNELNLGRREEYDVLDKRRGRDPEMGGKPRRKNPQEGLYNELQKDKMAEAYSEIGMKGERRRGKGHDGLYQGLSTATKDTYDALHMQALPPR
% Cytotoxicity of CAR-T cells against Jurkat/Luc, E/T = 1 : 1 [3]: 60.5% | % Cytotoxicity of CAR-T cells against Jurkat/Luc, E/T = 5 : 1 [3]: 94.5% | % Cytotoxicity of CAR-T cells against Jurkat/Luc, E/T = 20 : 1 [3]: 100% | % Cytotoxicity of CAR-T cells against CCRF-CEM/Luc, E/T = 1 : 1 [4]: 69.7% | % Cytotoxicity of CAR-T cells against CCRF-CEM/Luc, E/T = 5 : 1 [4]: 64.9% | % Cytotoxicity of CAR-T cells against CCRF-CEM/Luc, E/T = 20 : 1 [4]: 94.1%

B7: AHP19483 (Fc fusion)
chain: AVQLVDSGGGLVQAGGSLTLSCAASGRTFSRYTMGWFRQAPGKERELVASISWSGGSTDYADSVKDRFTISRDNTKNTVYLQMNGLKPEDTAVYYCNTDRMPYRPVVGGILSWEPYWGQGTQVTVTP
notes: as for B1
EC50 [1]: 0.231 nM | binding result [2]: no binding (tested: 8 µg/ml (about 100 nM))

B8: AHP19485-VHH1 CAR (other)
chain: EVQLVESGGGLVQPGGSLRLSCAASERIFSIHAMGWYRQAPGKQRELVSSITIGGSTHYADSVKGRFTISRDNSKNTLYLQMNSLRAEDTAVYYCNSMLLAGTVGGSWGQGTLVTVSSGGGSGGGSGGGSGGGSEVQLVESGGGLVQPGGSLRLSCAASERIFSIHAMGWYRQAPGKQRELVSSITIGGSTHYADSVKGRFTISRDNSKNTLYLQMNSLRAEDTAVYYCNSMLLAGTVGGSWGQGTLVTVSSAAADYKDDDDKIEVMYPPPYLDNEKSNGTIIHVKGKHLCPSPLFPGPSKPFWVLVVVGGVLACYSLLVTVAFIIFWVRSKRSRLLHSDYMNMTPRRPGPTRKHYQPYAPPRDFAAYRSRVKFSRSADAPAYQQGQNQLYNELNLGRREEYDVLDKRRGRDPEMGGKPRRKNPQEGLYNELQKDKMAEAYSEIGMKGERRRGKGHDGLYQGLSTATKDTYDALHMQALPPR
% Cytotoxicity of CAR-T cells against Jurkat/Luc, E/T = 1 : 1 [3]: 29.7% | % Cytotoxicity of CAR-T cells against Jurkat/Luc, E/T = 5 : 1 [3]: 86% | % Cytotoxicity of CAR-T cells against Jurkat/Luc, E/T = 20 : 1 [3]: 99.4% | % Cytotoxicity of CAR-T cells against CCRF-CEM/Luc, E/T = 1 : 1 [4]: 57.4% | % Cytotoxicity of CAR-T cells against CCRF-CEM/Luc, E/T = 5 : 1 [4]: 61.2% | % Cytotoxicity of CAR-T cells against CCRF-CEM/Luc, E/T = 20 : 1 [4]: 78.2%

B9: VHH6 CAR (other)
chain: DVQLQESGGGLVQAGGSLRLSCAVSGYPYSSYCMGWFRQAPGKEREGVAAIDSDGRTRYADSVKGRFTISQDNAKNTLYLQMNRMKPEDTAMYYCAARFGPMGCVDLSTLSFGHWGQGTQVTVSITGGGGSGGGGSGGGGSGGGGSDVQLQESGGGLVQAGGSLRLSCAVSGYPYSSYCMGWFRQAPGKEREGVAAIDSDGRTRYADSVKGRFTISQDNAKNTLYLQMNRMKPEDTAMYYCAARFGPMGCVDLSTLSFGHWGQGTQVTVSITAAADYKDDDDKIEVMYPPPYLDNEKSNGTIIHVKGKHLCPSPLFPGPSKPFWVLVVVGGVLACYSLLVTVAFIIFWVRSKRSRLLHSDYMNMTPRRPGPTRKHYQPYAPPRDFAAYRSRVKFSRSADAPAYQQGQNQLYNELNLGRREEYDVLDKRRGRDPEMGGKPRRKNPQEGLYNELQKDKMAEAYSEIGMKGERRRGKGHDGLYQGLSTATKDTYDALHMQALPPR
% Cytotoxicity of CAR-T cells against Jurkat/Luc, E/T = 1 : 1 [3]: 43.4% | % Cytotoxicity of CAR-T cells against Jurkat/Luc, E/T = 5 : 1 [3]: 67.2% | % Cytotoxicity of CAR-T cells against Jurkat/Luc, E/T = 20 : 1 [3]: 93.6% | % Cytotoxicity of CAR-T cells against CCRF-CEM/Luc, E/T = 1 : 1 [4]: 74.5% | % Cytotoxicity of CAR-T cells against CCRF-CEM/Luc, E/T = 5 : 1 [4]: 51.2% | % Cytotoxicity of CAR-T cells against CCRF-CEM/Luc, E/T = 20 : 1 [4]: 71.1%

B10: AHP19481 (Fc fusion)
chain: AVQLVDSGGGLVQPGGSLRLSCAASGFTFSGFAMSWYRQAPGKERELVATISRFGESSNYEDSVKGRFTISRDNAKDTGYLQMNSLKPEDTAVYYCNAEAPAGSLWYGNNYWGQGTQVTVSS
notes: as for B1
EC50 [1]: 0.238 nM | binding result [2]: no binding (tested: 8 µg/ml (about 100 nM))

B11: AHP19472 (Fc fusion)
chain: AVQLVDSGGGLVQPGGSLGLSCAASGFTFSGFDMSWYRQAPGKERMLVATITRFGGSSNYEDSVKGRFTISRDNARDTVYLQMNSLKPEDTAMYYCHAEAPAGSLWFGNNYWGQGTQVTVSS
notes: Alpaca VHH expressed as fusion to human IgG1 Fc in HEK293-6E; not shown: human IgG1 Fc of expression vector pcDNA3.4-Fc (HuIgG1)
EC50 [1]: 0.179 nM | binding result [2]: no binding (tested: 8 µg/ml (about 100 nM))

B12: AHP19490 (Fc fusion)
chain: QVQLVESGGGLVQPGGSLRLSCAASGFTFSGFDMSWYRQAPGKERELVATISRFGGSSNYEDSVKGRFTISRDNVKDTVYLQMNSLKPEDTAVYYCYALAPAGSLWHGDNYWGQGTQVTVSS
notes: as for B1
EC50 [1]: 0.268 nM | binding result [2]: no binding (tested: 8 µg/ml (about 100 nM))

B13: AHP19509-VHH1 (Fc fusion)
chain: EVQLVESGGGLVQPGGSLRLSCAASGGTFNRYTMGWFRQAPGKEREFVSAISWSGGSTDYADSVKGRFTISRDNSKNTLYLQMNSLRAEDTAVYYCDTDRMPYRPVAAGILSWEANWGQGTLVTVSS
notes: Humanized VHH of AHP19509 expressed as fusion to human IgG1 Fc; not shown: human IgG1 Fc of expression vector pcDNA3.4-Fc (Human IgG1)
Kd [5]: 0.1 nM | koff [5]: 3.04e-05 s⁻¹ | kon [5]: 304000 M⁻¹ s⁻¹

B14: AHP19485-VHH1 (Fc fusion)
chain: EVQLVESGGGLVQPGGSLRLSCAASERIFSIHAMGWYRQAPGKQRELVSSITIGGSTHYADSVKGRFTISRDNSKNTLYLQMNSLRAEDTAVYYCNSMLLAGTVGGSWGQGTLVTVSS
notes: Humanized VHH of AHP19485 expressed as fusion to human IgG1 Fc; not shown: human IgG1 Fc of expression vector pcDNA3.4-Fc (Human IgG1)
Kd [5]: 0.131 nM | koff [5]: 3.18e-05 s⁻¹ | kon [5]: 243000 M⁻¹ s⁻¹

Source: patent EP4748858A1 (Nanjing Probio Biotech Co., Ltd., dated 2026)
